Reference: the supplement of paper PMC5998384

What was measured:
HeLa Kyoto [1] = test: solubility change mitosis vs G1/S (difference of NP-40 vs SDS log2 ratios) (log2 ratio difference); higher = more soluble in mitosis
HeLa Kyoto [2] = test: melting temperature (median over replicates), in situ; higher = more thermally stable
HeLa Kyoto [3] = test: thermal stability score vs G1/S (z-score of summed log2 fold changes over temperatures); higher = more thermally stable than in G1/S
HeLa Kyoto [4] = test: solubility in G1/S (NP-40 vs SDS abundance) (log2 ratio); higher = more soluble; settings: cell cycle stage: G1/S
[5] = cell cycle stage: early G1 (4.5 h after nocodazole release)
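Wherever melting temperature (median over replicates), in situ is given: HeLa Kyoto cells synchronized by double thymidine or nocodazole block, proteins quantified by TMT10plex mass spectrometry, three independent biological replicates.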
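Wherever solubility change mitosis vs G1/S (difference of NP-40 vs SDS log2 ratios) is given: synchronized HeLa Kyoto cells (double thymidine block for G1/S, nocodazole release for mitosis), protein amounts in NP-40 versus SDS lysates quantified by mass spectrometry, three biological replicates.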
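Wherever solubility in G1/S (NP-40 vs SDS abundance) is given: HeLa Kyoto cells arrested at G1/S by double thymidine block, proteins quantified by TMT10plex mass spectrometry in mild NP-40 versus SDS extracts, three biological replicates.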
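Wherever thermal stability score vs G1/S (z-score of summed log2 fold changes over temperatures) is given: synchronized HeLa Kyoto cells, proteins quantified by TMT10plex mass spectrometry, three biological replicates, mitosis taken 0.5 h after nocodazole release, G1/S directly after double thymidine block.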

Row | Sequence | solubility change mitosis (log2) (HeLa Kyoto [1]) | melting temperature (HeLa Kyoto [2]; cell cycle stage: G1/S) | melting temperature (HeLa Kyoto [2]; cell cycle stage: mitosis) | thermal stability score (HeLa Kyoto [3]; [5]) | thermal stability score (HeLa Kyoto [3]; cell cycle stage: mitosis) | solubility in G1/S (log2) (HeLa Kyoto [4])
1 | MSKRLRSSEVCADCSGPDPSWASVNRGTFLCDECCSVHRSLGRHISQVRHLKHTPWPPTLLQMVETLYNNGANSIWEHSLLDPASIMSGRRKANPQDKVHPNKAEFIRAKYQMLAFVHRLPCRDDDSVTAKDLSKQLHSSVRTGNLETCLRLLSLGAQANFFHPEKGNTPLHVASKAGQILQAELLAVYGADPGTQDSSGKTPVDYARQGGHHELAERLVEIQYELTDRLAFYLCGRKPDHKNGQHFIIPQMADSSLDLSELAKAAKKKLQSLSNHLFEELAMDVYDEVDRRETDAVWLATQNHSALVTETTVVPFLPVNPEYSSTRNQGRQKLARFNAHEFATLVIDILSDAKRRQQGSSLSGSKDNVELILKTINNQHSVESQDNDQPDYDSVASDEDTDLETTASKTNRQKSLDSDLSDGPVTVQEFMEVKNALVASEAKIQQLMKVNNNLSDELRIMQKKLQTLQSENSNLRKQATTNVYQVQTGSEYTDTSNHSSLKRRPSARGSRPMSMYETGSGQKPYLPMGEASRPEESRMRLQPFPAHIGRSALVTSSSSLPSFPSTLSWSRDESARRASRLEKQNSTPESDYDNTPNDMEPDGMGSSRKGRQRSMVWPGDGLVPDTAEPHVAPSPTLPSTEDVIRKTEQITKNIQELLRAAQENKHDSYIPCSERIHVAVTEMAALFPKKPKSDMVRTSLRLLTSSAYRLQSECKKTLPGDPGSPTDVQLVTQQVIQCAYDIAKAAKQLVTITTKENNN [GIT2] | -0.13 | 48 °C | 48.9 °C | 1.06 | 2.68 | 0.317
2 | MSKSESPKEPEQLRKLFIGGLSFETTDESLRSHFEQWGTLTDCVVMRDPNTKRSRGFGFVTYATVEEVDAAMNARPHKVDGRVVEPKRAVSREDSQRPGAHLTVKKIFVGGIKEDTEEHHLRDYFEQYGKIEVIEIMTDRGSGKKRGFAFVTFDDHDSVDKIVIQKYHTVNGHNCEVRKALSKQEMASASSSQRGRSGSGNFGGGRGGGFGGNDNFGRGGNFSGRGGFGGSRGGGGYGGSGDGYNGFGNDGGYGGGGPGYSGGSRGYGSGGQGYGNQGSGYGGSGSYDSYNNGGGGGFGGGSGSNFGGGGSYNDFGNYNNQSSNFGPMKGGNFGGRSSGPYGGGGQYFAKPRNQGGYGGSSSSSSYGSGRRF [HNRNPA1] | 0.275 | 49.4 °C | 50.1 °C | -0.92 | 1.18 | -0.184
3 | MSKSKDDAPHELESQFILRLPPEYASTVRRAVQSGHVNLKDRLTIELHPDGRHGIVRVDRVPLASKLVDLPCVMESLKTIDKKTFYKTADICQMLVSTVDGDLYPPVEEPVASTDPKASKKKDKDKEKKFIWNHGITLPLKNVRKRRFRKTAKKKYIESPDVEKEVKRLLSTDAEAVSTRWEIIAEDETKEAENQGLDISSPGMSGHRQGHDSLEHDELREIFNDLSSSSEDEDETQHQDEEDINIIDTEEDLERQLQDKLNESDEQHQENEGTNQLVMGIQKQIDNMKGKLQETQDRAKRQEDLIMKVENLALKNRFQAVLDELKQKEDREKEQLSSLQEELESLLEK [TAF7] | 0.081 | 52 °C | 51.6 °C | 1.09 | 3.64 | 0.55
4 | MSLADELLADLEEAAEEEEGGSYGEEEEEPAIEDVQEETQLDLSGDSVKTIAKLWDSKMFAEIMMKIEEYISKQAKASEVMGPVEAAPEYRVIVDANNLTVEIENELNIIHKFIRDKYSKRFPELESLVPNALDYIRTVKELGNSLDKCKNNENLQQILTNATIMVVSVTASTTQGQQLSEEELERLEEACDMALELNASKHRIYEYVESRMSFIAPNLSIIIGASTAAKIMGVAGGLTNLSKMPACNIMLLGAQRKTLSGFSSTSVLPHTGYIYHSDIVQSLPPDLRRKAARLVAAKCTLAARVDSFHESTEGKVGYELKDEIERKFDKWQEPPPVKQVKPLPAPLDGQRKKRGGRRYRKMKERLGLTEIRKQANRMSFGEIEEDAYQEDLGFSLGHLGKSGSGRVRQTQVNEATKARISKTLQRTLQKQSVVYGGKSTIRDRSSGTASSVAFTPLQGLEIVNPQAAEKKVAEANQKYFSSMAEFLKVKGEKSGLMST [PRPF31] | 0.246 | 46.8 °C | 48.3 °C | 2.25 | 7.81 | -0.0726
5 | MSLLLYYALPALGSYAMLSIFFLRRPHLLHTPRAPTFRIRLGAHRGGSGELLENTMEAMENSMAQRSDLLELDCQLTRDRVVVVSHDENLCRQSGLNRDVGSLDFEDLPLYKEKLEVYFSPGHFAHGSDRRMVRLEDLFQRFPRTPMSVEIKGKNEELIREIAGLVRRYDRNEITIWASEKSSVMKKCKAANPEMPLSFTISRGFWVLLSYYLGLLPFIPIPEKFFFCFLPNIINRTYFPFSCSCLNQLLAVVSKWLIMRKSLIRHLEERGVQVVFWCLNEESDFEAAFSVGATGVITDYPTALRHYLDNHGPAARTS [GDPD3] | -0.0964 | 56.4 °C | 55.1 °C | -0.274 | 0.35 | -0.262
6 | MSLLMISENVKLAREYALLGNYDSAMVYYQGVLDQMNKYLYSVKDTYLQQKWQQVWQEINVEAKHVKDIMKTLESFKLDSTPLKAAQHDLPASEGEVWSMPVPVERRPSPGPRKRQSSQYSDPKSHGNRPSTTVRVHRSSAQNVHNDRGKAVRCREKKEQNKGREEKNKSPAAVTEPETNKFDSTGYDKDLVEALERDIISQNPNVRWDDIADLVEAKKLLKEAVVLPMWMPEFFKGIRRPWKGVLMVGPPGTGKTLLAKAVATECKTTFFNVSSSTLTSKYRGESEKLVRLLFEMARFYSPATIFIDEIDSICSRRGTSEEHEASRRVKAELLVQMDGVGGTSENDDPSKMVMVLAATNFPWDIDEALRRRLEKRIYIPLPSAKGREELLRISLRELELADDVDLASIAENMEGYSGADITNVCRDASLMAMRRRIEGLTPEEIRNLSKEEMHMPTTMEDFEMALKKVSKSVSAADIERYEKWIFEFGSC [KATNA1] | -0.000211 | 51.4 °C | 49.9 °C | 0.0753 | 0.484 | 0.0763
7 | MSLLQSALDFLAGPGSLGGASGRDQSDFVGQTVELGELRLRVRRVLAEGGFAFVYEAQDVGSGREYALKRLLSNEEEKNRAIIQEVCFMKKLSGHPNIVQFCSAASIGKEESDTGQAEFLLLTELCKGQLVEFLKKMESRGPLSCDTVLKIFYQTCRAVQHMHRQKPPIIHRDLKVENLLLSNQGTIKLCDFGSATTISHYPDYSWSAQRRALVEEEITRNTTPMYRTPEIIDLYSNFPIGEKQDIWALGCILYLLCFRQHPFEDGAKLRIVNGKYSIPPHDTQYTVFHSLIRAMLQVNPEERLSIAEVVHQLQEIAAARNVNPKSPITELLEQNGGYGSATLSRGPPPPVGPAGSGYSGGLALAEYDQPYGGFLDILRGGTERLFTNLKDTSSKVIQSVANYAKGDLDISYITSRIAVMSFPAEGVESALKNNIEDVRLFLDSKHPGHYAVYNLSPRTYRPSRFHNRVSECGWAARRAPHLHTLYNICRNMHAWLRQDHKNVCVVHCMDGRAASAVAVCSFLCFCRLFSTAEAAVYMFSMKRCPPGIWPSHKRYIEYMCDMVAEEPITPHSKPILVRAVVMTPVPLFSKQRSGCRPFCEVYVGDERVASTSQEYDKMRDFKIEDGKAVIPLGVTVQGDVLIVIYHARSTLGGRLQAKMASMKMFQIQFHTGFVPRNATTVKFAKYDLDACDIQEKYPDLFQVNLEVEVEPRDRPSREAPPWENSSMRGLNPKILFSSREEQQDILSKFGKPELPRQPGSTAQYDAGAGSPEAEPTDSDSPPSSSADASRFLHTLDWQEEKEAETGAENASSKESESALMEDRDESEVSDEGGSPISSEGQEPRADPEPPGLAAGLVQQDLVFEVETPAVLPEPVPQEDGVDLLGLHSEVGAGPAVPPQACKAPSSNTDLLSCLLGPPEAASQGPPEDLLSEDPLLLASPAPPLSVQSTPRGGPPAAADPFGPLLPSSGNNSQPCSNPDLFGEFLNSDSVTVPPSFPSAHSAPPPSCSADFLHLGDLPGEPSKMTASSSNPDLLGGWAAWTETAASAVAPTPATEGPLFSPGGQPAPCGSQASWTKSQNPDPFADLGDLSSGLQGSPAGFPPGGFIPKTATTPKGSSSWQTSRPPAQGASWPPQAKPPPKACTQPRPNYASNFSVIGAREERGVRAPSFAQKPKVSENDFEDLLSNQGFSSRSDKKGPKTIAEMRKQDLAKDTDPLKLKLLDWIEGKERNIRALLSTLHTVLWDGESRWTPVGMADLVAPEQVKKHYRRAVLAVHPDKAAGQPYEQHAKMIFMELNDAWSEFENQGSRPLF | -0.151 | 48.6 °C | 48.9 °C | 0.76 | 1.62 | -0.0682
8 | MSLRKQTPSDFLKQIIGRPVVVKLNSGVDYRGVLACLDGYMNIALEQTEEYVNGQLKNKYGDAFIRGNNVLYISTQKRRM [LSM6] | 0.276 | 57.7 °C | 54 °C | -1.66 | -2.63 | 0.0787
9 | MSLSENSVFAYESSVHSTNVLLSLNDQRKKDVLCDVTIFVEGQRFRAHRSVLAACSSYFHSRIVGQADGELNITLPEEVTVKGFEPLIQFAYTAKLILSKENVDEVCKCVEFLSVHNIEESCFQFLKFKFLDSTADQQECPRKKCFSSHCQKTDLKLSLLDQRDLETDEVEEFLENKNVQTPQCKLRRYQGNAKASPPLQDSASQTYESMCLEKDAALALPSLCPKYRKFQKAFGTDRVRTGESSVKDIHASVQPNERSENECLGGVPECRDLQVMLKCDESKLAMEPEETKKDPASQCPTEKSEVTPFPHNSSIDPHGLYSLSLLHTYDQYGDLNFAGMQNTTVLTEKPLSGTDVQEKTFGESQDLPLKSDLGTREDSSVASSDRSSVEREVAEHLAKGFWSDICSTDTPCQMQLSPAVAKDGSEQISQKRSECPWLGIRISESPEPGQRTFTTLSSVNCPFISTLSTEGCSSNLEIGNDDYVSEPQQEPCPYACVISLGDDSETDTEGDSESCSAREQECEVKLPFNAQRIISLSRNDFQSLLKMHKLTPEQLDCIHDIRRRSKNRIAAQRCRKRKLDCIQNLESEIEKLQSEKESLLKERDHILSTLGETKQNLTGLCQKVCKEAALSQEQIQILAKYSAADCPLSFLISEKDKSTPDGELALPSIFSLSDRPPAVLPPCARGNSEPGYARGQESQQMSTATSEQAGPAEQCRQSGGISDFCQQMTDKCTTDE [BACH1] | 0.0971 | 53.6 °C | 53.1 °C | -0.135 | -2.84 | -0.0438
10 | MSLSRSEEMHRLTENVYKTIMEQFNPSLRNFIAMGKNYEKALAGVTYAAKGYFDALVKMGELASESQGSKELGDVLFQMAEVHRQIQNQLEEMLKSFHNELLTQLEQKVELDSRYLSAALKKYQTEQRSKGDALDKCQAELKKLRKKSQGSKNPQKYSDKELQYIDAISNKQGELENYVSDGYKTALTEERRRFCFLVEKQCAVAKNSAAYHSKGKELLAQKLPLWQQACADPSKIPERAVQLMQQVASNGATLPSALSASKSNLVISDPIPGAKPLPVPPELAPFVGRMSAQESTPIMNGVTGPDGEDYSPWADRKAAQPKSLSPPQSQSKLSDSYSNTLPVRKSVTPKNSYATTENKTLPRSSSMAAGLERNGRMRVKAIFSHAAGDNSTLLSFKEGDLITLLVPEARDGWHYGESEKTKMRGWFPFSYTRVLDSDGSDRLHMSLQQGKSSSTGNLLDKDDLAIPPPDYGAASRAFPAQTASGFKQRPYSVAVPAFSQGLDDYGARSMSRNPFAHVQLKPTVTNDRCDLSAQGPEGREHGDGSARTLAGR [BAIAP2] | 0.0657 | 50.6 °C | 51.2 °C | 0.524 | 0.515 | 0.466
